Experiments:
[1] = target: rat GALR3 receptor (rat); experiment: displacement of porcine 125I-galanin, rat GalR3 transiently expressed in COS-7 membranes
[2] = target: rat GALR3 receptor (rat); experiment: apparent binding affinity, rat GalR3 in COS-7 (repeats Table 4)
[3] = target: human GALR3 receptor (human) (UniProt O60755); experiment: cell-based or functional assay
[4] = target: rat GALR3 receptor (rat); experiment: displacement of porcine 125I-galanin, membranes of transiently transfected COS-7 cells
[5] = target: rat GALR1 receptor (rat); experiment: as above
[6] = target: rat GALR3 receptor (rat); experiment: displacement of porcine 125I-galanin, membranes of stable cell line 293-rGalR3-105
[7] = target: rat GALR2 receptor (rat) (UniProt O08726); experiment: displacement of porcine 125I-galanin, membranes of transiently transfected COS-7 cells
Sequence of rat GALR2 receptor (rat) (O08726 whole entry): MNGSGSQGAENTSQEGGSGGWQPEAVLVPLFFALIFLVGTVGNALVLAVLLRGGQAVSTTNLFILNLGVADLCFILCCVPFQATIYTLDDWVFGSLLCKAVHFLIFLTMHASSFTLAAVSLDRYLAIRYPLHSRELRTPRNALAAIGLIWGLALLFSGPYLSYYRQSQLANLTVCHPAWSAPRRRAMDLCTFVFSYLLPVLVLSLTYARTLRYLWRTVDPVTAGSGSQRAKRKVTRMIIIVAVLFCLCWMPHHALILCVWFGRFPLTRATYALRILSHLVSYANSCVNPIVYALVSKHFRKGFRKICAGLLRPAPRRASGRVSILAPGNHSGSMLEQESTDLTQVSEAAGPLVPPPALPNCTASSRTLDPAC

[8] = target: human GALR3 receptor (human) (UniProt O60755); experiment: displacement of porcine 125I-galanin, membranes of stable LM(tk-) line L-hGalR3-228

Sequence of human GALR3 receptor (human) (O60755 whole entry, form in doubt): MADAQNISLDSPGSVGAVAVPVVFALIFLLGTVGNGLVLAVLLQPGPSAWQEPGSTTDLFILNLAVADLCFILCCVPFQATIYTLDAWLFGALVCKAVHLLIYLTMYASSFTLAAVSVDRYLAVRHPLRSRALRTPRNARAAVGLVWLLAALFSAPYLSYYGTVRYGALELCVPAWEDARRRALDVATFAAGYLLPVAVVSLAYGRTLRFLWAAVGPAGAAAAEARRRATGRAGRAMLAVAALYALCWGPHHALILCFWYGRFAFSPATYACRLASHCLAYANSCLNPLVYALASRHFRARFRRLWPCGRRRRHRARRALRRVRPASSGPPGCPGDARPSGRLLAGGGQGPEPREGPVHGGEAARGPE

Substance | Ki [1] | Ki [2] | Oocyte EC50 (stimulation of GIRKs) [3] | Ki [4] | Ki [5] | Ki [6] | Ki [7] | Ki [8]
C7 (peptide) | 23 nM | 23 nM | 343 nM | 68 nM | 16 nM | 9.6 nM | – | –
D-Trp2-galanin 1-16 (peptide) | – | – | – | > 1000 nM | – | – | – | –
D-Trp2-galanin 1-29 (peptide) | – | – | – | > 1000 nM | – | – | – | –
M35 (peptide) | 3.7 nM | – | – | 6.7 nM | 0.33 nM | 3.2 nM | 0.57 nM | 7.8 nM
galanin -7 to +29 (peptide) | – | – | 1910 nM | – | – | – | – | –
galantide (peptide) | 9 nM | – | – | 18 nM | 9.5 nM | – | 2 nM | –

Reference: patent publication US20010009766A1
